How the values were obtained:
293T blank cells = assay: FACS non-specific binding, parental 293T blank cells (Example 4)
Description: (§1) The binding affinity and specificity of purified anti-FGFR2b antibodies were determined by ELISA and FACS. […] After incubation and washing, the plates were developed with HRP substrate and absorbance was measured. […] After washing twice with FACS buffer, diluted Alexa Fluor 647 goat anti-human IgG secondary antibody was added and incubated with cells for 30 minutes at 4° C. in the dark. After washing twice with FACS buffer, cells were resuspended with FACS buffer and read using a Becton Dickinson LSR FortessaTM cell analyzer. Non-specific binding of these antibodies was evaluated by FACS binding against parental 293T blank cells. Titration curves were generated using a sigmoidal dose-response of nonlinear fit from GraphPadTM Software by Dotmatics.

[1] = test system: phosphorylated FGFR in SNU-16 cells; assay: Inhibition of FGFR2 signaling in SNU-16 cells (Western blot of pFGFR); type: cell-based; details: antibody 10 μg/ml, 2 hours
Description: Inhibition of the FGFR2 signaling pathway by the humanized antibodies was investigated. SNU-16 cells were grown in RPMI-1640 medium with 10% FBS, collected and washed twice with free medium and then seeded in 12-well plates at 1.5E6 cells/well in serum-free RPMI-1640. The plates were incubated at 37° C., 5% CO2, and 95% humidity in an incubator overnight. Anti-FGFR2b antibodies at a concentration of 10 μg/ml were added to the assay plates. Recombinant human FGF7 or FGF10 protein (10 ng/ml) in the presence of heparin (5 μg/ml) was added to the assay plates. The plates were incubated in a 37° C., 5% CO2, 95% humidity incubator for 2 hours. Following 2 hours incubation, cells were collected and washed twice with cold PBS. NP40 lysis buffer containing 1×PMSF and 1× Protease plus phosphatase inhibitors were added to the cell pellets. The mixture was pipetted up and down to suspend the pellet. The mixture was inverted gently and each placed for 10 minutes on ice, for a total of 30 minutes. The mixture was centrifuged at 12000× rpm for 10 minutes to pellet the cell debris. The supernatant was transferred to a new tube to quantify total protein concentration by BCA Kit. The protein samples were then split and stored at −80° C. for further Western blotting to detect the expression of pFGFR and total FGFR2. […]

Human FGFR2c = Human FGFR2c (Homo sapiens, UniProt P21802); assay: ELISA protein binding to human FGFR2c (Example 4); details: coated protein
Description: as §1

BaF3_hFGFR2b OE cells = assay: Ligand-induced proliferation inhibition assay in BaF3_hFGFR2b OE cells; type: cell-based; details: antibody 10 μg/ml, heparin 5 μg/ml, 72 hours
Description: The inhibition activity of antibody on ligand-induced cell proliferation was evaluated in an FGFR2b engineered BaF3 cell line system (BaF3_hFGFR2b OE). BaF3 cells are dependent on interleukin-3 (IL-3) for growth. The BaF3 system allows for testing of kinases and kinase inhibitors. Some protein kinases can render BaF3 cells to be independent of IL-3, whereas kinase inhibitors antagonize this effect. Cells were seeded in 96-well plates at 30,000 cells/well in RPMI-1640 medium containing 10% fetal bovine serum. Anti-FGFR2b antibodies at a concentration of 10 μg/ml were added to the assay plates. Recombinant human FGF7 or FGF10 protein (40 ng/ml) in the presence of heparin (5 μg/ml) was added to the assay plates. The plates were incubated at 37° C., 5% CO2, 95% humidity in an incubator for 72 hours. Following incubation, 50 μl Cell Titer Glo reagent was added to each well and the plates were mixed for 1 min and then incubated at RT for 10 min. Luminescence signals were detected and recorded.
The Ba/F3 system is used to investigate downstream oncogenic signaling pathways and the susceptibility of driver variants to therapeutics. Driver-addicted Ba/F3 cells die when the driver-engaged signaling pathway is inhibited, and this effect can be rescued by re-introduction of […].
FIGS. 6 and 7 show the results of Ba/F3 proliferation assays. […]

human FGFR2b = human FGFR2b (Homo sapiens, UniProt P21802); assay: ELISA protein binding to human FGFR2b (Example 4); details: coated protein
Description: as §1

Human FGFR2c OE cells = Human FGFR2c OE cells (Homo sapiens, UniProt P21802); assay: FACS cellular binding, human FGFR2c OE cells (Example 4)
Description: as §1

Murine FGFR2b OE cells = molecular target: T1, Murine FGFR2b OE cells (Mus musculus, UniProt P21803); assay: FACS cellular binding, murine FGFR2b OE cells (Example 4)
T1 construct: expressed in transfected cells; host or cells: 293T
Description: as §1

[2] = molecular target: T2, soluble human FGFR2b proteins (Homo sapiens, UniProt P21802); assay: SPR binding kinetics (Biacore 8K, Example 5); details: room temperature
T2 construct: soluble human FGFR2b proteins (his tag, in-house generated); His tag; made in house
Description: The binding affinity and kinetics of purified anti-FGFR2b antibodies were determined by surface plasmon resonance (Biacore 8K, GE Life Sciences) at room temperature. Briefly, mouse anti-human IgG Fc antibody was immobilized via amine coupling onto a activated CM5 biosensor chip (Cat. No. BR100530, GE Life Sciences). Purified monoclonal antibody candidates were flowed over the chip surface and captured by anti-human IgG antibody. Then a serial dilution of soluble human FGFR2b proteins (his tag, in-house generated) were injected over the antibodies captured surface and changes in surface plasmon resonance signals were analyzed to calculate the association rates (kon) and dissociation rates (koff) by using the one-to-one Langmuir binding model (BIA Evaluation Software, GE Life Sciences). The equilibrium dissociation constant (KD) was calculated as the ratio koff/kon.

[3] = patients; cited from earlier work
Human FGFR2b OE cells = molecular target: T3, Human FGFR2b OE cells (Homo sapiens, UniProt P21802); assay: FACS cellular binding, human FGFR2b OE cells (Example 4)
T3 construct: expressed in transfected cells; host or cells: 293T
Description: as §1

[4] = test system: co-inoculated HSC-39+SNU-5 xenografts; assay: Co-inoculated HSC-39+SNU-5 gastric cancer xenografts; type: in vivo, BALB/c nude mice; details: HSC-39:SNU-5 ratios of 2:1 and 5:1, single dose 10 mpk i.v.
Description: HSC-39 and SNU-5 were cultured in Dulbecco's modified Eagle's medium (DMEM), supplemented with 10% (v/v) fetal bovine serum, 100 U/ml penicillin, and 100 μg/mL streptomycin. Cells were incubated in a humidified incubator with 5% CO2 at 37° C. On the day of implantation, cells were collected and washed with serum-free medium. Six- to eight-week-old female BALB/c nude mice were purchased and housed in ventilated cages, given food and water ad libitum, and allowed to acclimate for approximately 1 week prior to inoculation. A total of 5×10^6 HSC-39 and SNU-5 cancer cells mixed with matrigel at a ratio of 2:1 or 5:1 were implanted subcutaneously into the mouse flank. […] Tumor volumes were measured twice weekly. Data is presented as mean tumor volume ±standard error of the mean (SEM). In the vehicle group at a 2:1 HSC-39:SNU-5 ratio, there were ˜50% FGFR2b positive cells in the tumor at the starting point with ˜40% at the end point. In the vehicle group at a 5:1 HSC-39:SNU-5 ratio, there were ˜60% FGFR2b positive cells in the tumor at the starting point with ˜20% at the end point.

T2 sequence (P21802 22-378 isoform P21802-3 limits assumed): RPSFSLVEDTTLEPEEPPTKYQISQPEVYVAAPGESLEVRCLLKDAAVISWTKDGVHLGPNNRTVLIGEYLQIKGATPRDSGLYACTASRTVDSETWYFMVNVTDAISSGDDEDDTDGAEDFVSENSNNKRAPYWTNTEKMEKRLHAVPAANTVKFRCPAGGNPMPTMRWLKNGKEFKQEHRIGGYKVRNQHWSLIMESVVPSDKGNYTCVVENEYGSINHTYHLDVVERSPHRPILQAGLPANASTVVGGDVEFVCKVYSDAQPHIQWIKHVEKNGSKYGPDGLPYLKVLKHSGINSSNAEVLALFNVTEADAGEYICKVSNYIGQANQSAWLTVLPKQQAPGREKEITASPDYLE
Sequence of human FGFR2b (P21802 22-822 isoform P21802-3 limits assumed): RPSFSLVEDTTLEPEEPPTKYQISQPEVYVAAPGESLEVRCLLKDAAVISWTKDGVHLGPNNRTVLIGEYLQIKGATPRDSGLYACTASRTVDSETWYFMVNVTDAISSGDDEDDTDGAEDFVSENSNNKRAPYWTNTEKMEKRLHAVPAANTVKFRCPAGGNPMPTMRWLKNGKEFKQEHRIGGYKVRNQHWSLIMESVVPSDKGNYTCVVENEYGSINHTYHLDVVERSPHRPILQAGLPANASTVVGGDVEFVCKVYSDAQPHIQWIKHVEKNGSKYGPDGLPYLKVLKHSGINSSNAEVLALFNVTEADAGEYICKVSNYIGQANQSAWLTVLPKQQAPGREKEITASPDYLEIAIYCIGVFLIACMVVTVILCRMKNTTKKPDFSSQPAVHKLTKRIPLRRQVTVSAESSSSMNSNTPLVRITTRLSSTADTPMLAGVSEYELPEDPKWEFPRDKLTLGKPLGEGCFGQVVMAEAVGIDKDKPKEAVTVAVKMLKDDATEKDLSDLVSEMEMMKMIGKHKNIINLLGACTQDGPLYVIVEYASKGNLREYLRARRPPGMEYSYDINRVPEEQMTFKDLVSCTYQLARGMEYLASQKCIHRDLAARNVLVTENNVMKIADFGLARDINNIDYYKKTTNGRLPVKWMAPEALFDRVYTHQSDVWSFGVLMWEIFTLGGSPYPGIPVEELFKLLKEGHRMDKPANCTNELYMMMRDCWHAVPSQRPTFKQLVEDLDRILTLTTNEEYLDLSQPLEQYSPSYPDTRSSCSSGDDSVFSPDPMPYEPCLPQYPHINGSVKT
Sequence of Human FGFR2c OE cells (P21802 22-821): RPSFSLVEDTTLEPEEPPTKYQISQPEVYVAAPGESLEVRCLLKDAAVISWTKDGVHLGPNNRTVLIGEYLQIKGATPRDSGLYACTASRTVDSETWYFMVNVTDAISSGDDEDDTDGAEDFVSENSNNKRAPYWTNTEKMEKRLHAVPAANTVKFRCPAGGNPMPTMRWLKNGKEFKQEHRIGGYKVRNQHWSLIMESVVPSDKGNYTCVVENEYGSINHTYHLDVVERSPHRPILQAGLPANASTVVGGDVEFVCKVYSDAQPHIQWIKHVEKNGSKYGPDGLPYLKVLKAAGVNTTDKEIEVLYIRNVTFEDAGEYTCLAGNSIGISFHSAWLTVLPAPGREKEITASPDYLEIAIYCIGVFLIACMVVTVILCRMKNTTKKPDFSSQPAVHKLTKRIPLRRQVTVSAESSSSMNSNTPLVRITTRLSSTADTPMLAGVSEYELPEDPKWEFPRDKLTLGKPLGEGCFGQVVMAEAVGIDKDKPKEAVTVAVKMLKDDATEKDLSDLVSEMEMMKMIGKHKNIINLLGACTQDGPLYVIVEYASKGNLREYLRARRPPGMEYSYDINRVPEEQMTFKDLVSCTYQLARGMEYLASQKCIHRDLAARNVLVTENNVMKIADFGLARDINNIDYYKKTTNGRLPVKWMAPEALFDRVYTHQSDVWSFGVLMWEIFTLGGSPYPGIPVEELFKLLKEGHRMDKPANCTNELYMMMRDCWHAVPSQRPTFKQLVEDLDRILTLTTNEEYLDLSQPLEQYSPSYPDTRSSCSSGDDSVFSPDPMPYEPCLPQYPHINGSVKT
Sequence of Human FGFR2c (P21802 22-821): as above
T3 sequence (P21802 22-822 isoform P21802-3 limits assumed): as the sequence (P21802 22-822 isoform P21802-3 limits assumed) above
T1 sequence (P21803 22-707 isoform P21803-2 limits assumed): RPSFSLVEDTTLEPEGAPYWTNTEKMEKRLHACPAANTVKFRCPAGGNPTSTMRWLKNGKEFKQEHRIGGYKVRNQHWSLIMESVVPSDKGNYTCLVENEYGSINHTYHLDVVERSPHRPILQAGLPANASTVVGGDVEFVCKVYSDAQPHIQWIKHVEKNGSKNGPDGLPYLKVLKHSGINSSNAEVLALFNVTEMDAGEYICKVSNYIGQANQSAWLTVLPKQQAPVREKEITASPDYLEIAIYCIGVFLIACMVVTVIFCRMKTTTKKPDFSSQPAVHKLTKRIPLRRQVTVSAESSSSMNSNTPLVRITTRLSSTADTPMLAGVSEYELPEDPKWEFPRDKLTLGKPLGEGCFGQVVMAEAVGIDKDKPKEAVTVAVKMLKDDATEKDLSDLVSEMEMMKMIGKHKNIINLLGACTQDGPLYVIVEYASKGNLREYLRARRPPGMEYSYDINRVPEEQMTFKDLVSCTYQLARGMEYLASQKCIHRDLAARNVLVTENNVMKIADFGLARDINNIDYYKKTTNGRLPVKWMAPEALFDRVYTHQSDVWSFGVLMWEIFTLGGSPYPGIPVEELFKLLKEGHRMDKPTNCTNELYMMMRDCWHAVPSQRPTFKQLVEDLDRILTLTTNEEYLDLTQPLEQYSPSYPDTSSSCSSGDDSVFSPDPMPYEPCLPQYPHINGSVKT

With “BGA1421: comparator antibody bemarituzumab, un-conjugated; HC SEQ ID NO: 35, LC SEQ ID NO: 36 [reference compound]” the “293T blank cells binding Emax” value (293T blank cells) was 18 MFI, the “FGF7-induced FGFR phosphorylation” value ([1]; FGF7 10 ng/ml) was “down-regulation of phosphorylated FGFR” and the “FGF10-induced FGFR phosphorylation” value ([1]; FGF10 10 ng/ml) was “down-regulation of phosphorylated FGFR”. For the same substance, the “Human FGFR2c binding Emax(OD450)” value (Human FGFR2c) was 0.09 OD450, the “inhibition of FGF7-induced BaF3_hFGFR2b cell proliferation” value (BaF3_hFGFR2b OE cells; FGF7 40 ng/ml) was “potently inhibit” and the “inhibition of FGF10-induced BaF3_hFGFR2b cell proliferation” value (BaF3_hFGFR2b OE cells; FGF10 40 ng/ml) was “potently inhibit”. For the same substance, the EC50 (human FGFR2b) was 610 pM, the “Human FGFR2b binding Emax(OD450)” value (human FGFR2b) was 2.62 OD450 and the “Human FGFR2c OE cells binding Emax” value (Human FGFR2c OE cells) was 40 MFI. The EC50 (Murine FGFR2b OE cells) was 810 pM, the ka ([2]; antibody captured) was 104000 M⁻¹ s⁻¹ and the kd ([2]; antibody captured) was 0.00232 s⁻¹. The Kd ([2]; koff/kon) was 22200 pM, the “treatment discontinuation rate caused by corneal toxicity” value [3] was 26% and the EC50 (Human FGFR2b OE cells) was 480 pM. For the same substance, the tumor growth [4] was “inhibited tumor growth but was less potent”.

From patent US20250222125A1, “Anti-FGFR2b Antibodies, Conjugates and Methods of Use” (BeiGene, Ltd., priority 2024, published 2025)
